The target of assay [1] is T1, Cyno BCMA APP-Avi (cynomolgus, biotinylated (site not stated)).
T1 construct: It was used as soluble biotinylated antigen; also called biotinylated cyno BCMA
Briefly: flow cytometry of single yeast clone displaying the scFv, labelled with 20 nM biotinylated cyno BCMA, streptavidin/neutravidin-DyLight 633 detection. As to the method:
(§1) For the fourth round of screening, yeast from the third round output were pelleted, washed, and resuspended in 200 mL SD-ura broth with 1% raffinose, 2% galactose, and incubated for 22 hours at 20° C. to induce expression. […] The first sample was incubated with human BCMA for 45 min at room temperature, pelleted, washed twice with PBSF, and then resuspended in 1 mL PBSF (PBS with 0.1% BSA). The second sample was incubated with human BCMA for 45 minutes at room temperature. Both samples were pelleted, washed twice with PBSF, and resuspended in 200 uL of PBSF+a 1:30 dilution of rabbit anti-cMyc-FITC (Abcam)+a 1:100 dilution of neutravidin-dylight 633 (Invitrogen). Samples were incubated at 4 C for 30 min, pelleted, washed twice with PBSF, resuspended in 3 mL PBSF, filtered through 40 um filters, then sorted using flow cytometry on a FACS Aria cell sorter (Becton Dickinson Biosciences, San Jose, Calif.). Approximately 5×10⁵ yeast were isolated and resuspended in 4 mL SD-ura broth with 2% glucose and grown overnight at 30° C.
(§2) Each sample plate was used to create three test plates for flow cytometric analysis. […] Labeling was essentially as above for sorting, except using 1:200 each streptavidin-dylight 633 (Invitrogen) and neutravidin-dylight 633 (Invitrogen) in PBSF as secondary reagent and excluding any anti-cMyc antibody. The test plates were analyzed on a Cytoflex flow cytometer (Beckman Coulter, Brea, Calif.)
For orientation: A flow cytometer gives signals particle by particle.

For assay [2], the target named is T1, Cyno BCMA APP-Avi. The assay is described as follows: flow cytometry of single yeast clone displaying the scFv, labelled with 900 pM biotinylated cyno BCMA, streptavidin/neutravidin-DyLight 633 detection. As to the method: as §1, §2
For another assay, the target named is T2, Human BCMA-His-APP-Avi (human, biotinylated (captured on streptavidin plate; site not stated)).
T2 construct: also called His-APP-Avi-tagged human BCMA
T2 chain: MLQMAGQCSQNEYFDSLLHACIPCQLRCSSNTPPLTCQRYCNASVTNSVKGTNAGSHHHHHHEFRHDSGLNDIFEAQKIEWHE
Briefly: monoclonal phage ELISA, anti-M13-HRP, Abs450 against fold dilution of phage.

The target in assay [3] is T3, cynomolgus BCMA (antigen of the surface plasmon resonance measurement of PI-61) (cynomolgus, UniProt A0A2K5UD97 1-53).
T3 construct: Construct used in the SPR experiment is not described; also called cyno BCMA; not shown: The carrier or tag of the soluble cyno BCMA used in SPR
T3 sequence (A0A2K5UD97 entry or part of it limits assumed): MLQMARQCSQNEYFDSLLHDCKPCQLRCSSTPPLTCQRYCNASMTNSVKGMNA
The assay is described as follows: surface plasmon resonance. In general terms: SPR reads the build-up and loss of mass on a sensor chip optically.

Assay [4] deals with T4, human BCMA (antigen of the surface plasmon resonance measurement of PI-61) (human, UniProt Q02223 1-54, limits assumed).
T4 construct: Construct used in the SPR experiment is not described
T4 sequence (looked up): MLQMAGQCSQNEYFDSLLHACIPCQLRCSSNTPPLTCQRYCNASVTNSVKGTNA
Briefly: surface plasmon resonance.

Another assay deals with T5, recombinant human BCMA (human, UniProt Q02223 1-54, limits assumed).
T5 construct: The SET method says only 'recombinant human BCMA'; also called hBCMA; TNFRSF17
T5 sequence (looked up): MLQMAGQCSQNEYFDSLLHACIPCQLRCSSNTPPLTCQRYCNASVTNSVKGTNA
Briefly: solution equilibrium titration (SET, MSD); apparent KD; bispecific at a fixed concentration, BCMA titrated in solution.

Assay [5] has as its target T6, recombinant cynomolgus monkey BCMA (cynomolgus monkey, UniProt A0A2K5UD97 1-53).
T6 construct: The SET method says only 'recombinant cynomolgus monkey BCMA'; also called Cyno BCMA; cynoBCMA
Described as above.

T1 sequence (chain, as listed by the source limits assumed): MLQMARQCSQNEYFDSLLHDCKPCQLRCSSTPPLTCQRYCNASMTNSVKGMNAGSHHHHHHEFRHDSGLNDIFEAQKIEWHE

B1: H2/L2-36 scFv (scFv)
scFv: QAQLQSSGGGVVQPGRSLRLSCAASGFTFSSYGMHWVRQAPGKGLEWVAVISYKGSNKYYADSVKGRFTISRDNSKNTLYLQMNSLRAEDTAVYYCGGSGYALHDDYYGLDVWGQGTLVTVSSSGGGGSGGGGSGGGGSGGGGSQSALTQPASVSGSPGQSITISCTGTSSDVGGYNYVSWYQQHPGKAPKLMIYEVSNRLRGVSNRFSGSKFGNTASLTISGLQAEDEADYYCSSYTSSSTLYVFGSGTKVTVL
For the molecule B1, the MFI stood at 6430 MFI in the assay with Cyno BCMA APP-Avi [1] and 5590 MFI with Cyno BCMA APP-Avi [2].

B2: H2/L2-83 scFv (scFv)
scFv: QAQLQGSGGGVVQPGRSLRLSCAASGFTFSSYGMHWVRQAPGKGLEWVAVISYKGSNKYYADSVKGRFTISRDNSKNTLYLQMNSLRAEDTAVYYCGGSGYALHDDYYGLDVWGQGTLVTVSSSGGGGSGGGGSGGGGSGGGGSQSALTQPASVSGSPGQSITISCTGTSSDVGGYNYVSWYQQHPGKAPKLMIYEVSNRLRGVSNRFSGSKFGNTASLTISGLQAEDEADYYCSSYTSSSTLYVFGSGTKVTVL
On to B2, for which the MFI was 10700 MFI with Cyno BCMA APP-Avi [1] and 4880 MFI with Cyno BCMA APP-Avi [2].

B3: H2/L2-18 scFv (scFv)
scFv: QAQLQGSGGGVVQPGRSLRLSCAASGFTFSSYGMHWVRQAPGKGLEWVAVISYKGSHKYYADSVKGRFTISRDNSKNTLYLQMNSLRAEDTAVYYCGGSGYALHDDYYGLDVWGQGTLVTVSSSGGGGSGGGGSGGGGSGGGGSQSALTQPASVSGSPGQSITISCTGTSSDVGGYNYVSWYQQHPGKAPKLMIYDVSNRPWGVSNRFSGSKFGNTASLTISGLQAEDEADYYCSSYTSSSTLYVFGSGTKVTVL
For B3, the MFI in the assay with Cyno BCMA APP-Avi [1] came out at 19900 MFI; with Cyno BCMA APP-Avi [2] it was 7180 MFI.

B4: H2/L2-34 scFv (scFv)
scFv: QVQLQDSEGGVVQPGRSLRLSCAASGFTFSSYGMHWVRQAPGKGLEWVAVISYTGTKKYYADSVKGRFTISRDNSKNTLYLQMNSLRAEDTAVYYCGGSGYALHDDYYGLDVWGQGTLVTVSSSGGGGSGGGGSGGGGSGGGGSQSALTQPASVSGSPGQSITISCTGTSSDVGGYNYVSWYQQHPGKAPKLMIYDVSNRPWGVSNRFSGSKFGNTASLTISGLQAEDEADYYCSSYTSSSALYVFGSGTKVTVM
Regarding B4, the MFI was found to be 10400 MFI with Cyno BCMA APP-Avi [1] and 6050 MFI with Cyno BCMA APP-Avi [2].

B5: H2/L2-47 scFv (scFv)
scFv: QVQLQSSEGGVVQPGRSLRLSCAASGFTFSSYGMHWVRQAPGKGLEWVAVISYKGSNKYYADSVKGRFTISRDNSKNTLYLQMNSLRAEDTAVYYCGGSGYALHDDYYGLDVWGQGTLVTVSSSGGGGSGGGGSGGGGSGGGGSQSALTQPASVSGSPGQSITISCTGTSSDVGGYNYVSWYQQHPGKAPKLMIYDVSNRPWGVSNRFSGSKFGNTASLTISGLQAEDEADYYCSSYTSSSTLYVFGSGTKVTVL
For B5, the results for the MFI with Cyno BCMA APP-Avi [1] and in the assay with Cyno BCMA APP-Avi [2] were 14200 MFI and 5930 MFI, respectively.

B6: H2/L2-88 scFv (scFv)
scFv: QVQLQSSEGGVVQPGRSLRLSCAASGFTFSSYGMHWVRQAPGKGLEWVAVISYKGSNKYYADSVKGRFTISRDNSKNTLYLQMNSLRAEDTAVYYCGGSGYALHDDYYGLDVWGQGTLVTVSSSGGGGSGGGGSGGGGSGGGGSQSALTQPASVSGSPGQSITISCTGTSSDVGGYNYVSWYQQHPGKAPKLMIYEVSNRLRGVSNRFSGSKFGNTASLTISGLQAEDEADYYCSSYTSSSALYVFGSGTKVTVL
As to B6, the MFI was 4480 MFI with Cyno BCMA APP-Avi [1] and 6440 MFI with Cyno BCMA APP-Avi [2].

B7: H2/L2-68 scFv (scFv)
scFv: QAQLQSSEGGVVQPGRSLRLSCAASGFTFSSYGMHWVRQAPGKGLEWVAVISYRGFNKYYADSVKGRFTISRDNSKNTLYLQMNSLRAEDTAVYYCGGSGYALHDDYYGQDVWGQGTLVTVSSSGGGGSGGGGSGGGGSGGGGSQSALTQPASVSGSPGQSITISCTGTSSDVGGYNYVSWYQQHPGKAPKLMIYDVSNRLSGVSNRFSGSKFGNTASLTISGLQAEDEADYYCSSYTSSSTLYVFGSGTKVTVL
Consider B7, for which the MFI was found to be 16200 MFI with Cyno BCMA APP-Avi [1] and 7380 MFI in the assay with Cyno BCMA APP-Avi [2].

B8: H2/L2-80 scFv (scFv)
scFv: QVQLQSSGGGVVQPGRSLRLSCAASGFTFSSYGMHWVRQAPGKGLEWVAVISYTGSNKYYADSVKGRFTISRDNSKNTLYLQMNSLRAEDTAVYYCGGSGYALHDDYYGLDVWGQGTLVTVSSSGGGGSGGGGSGGGGSGGGGSQSALTQPASVSGSPGQSITISCTGTSSDVGGYNYVSWYQQHPGKAPKLMIYDVSNRAWGVSNRFSGSKFGNTASLTISGLQAEDEADYYCSSYTSSSALYVFGSGTKVTVL
Take B8: the MFI came to 17900 MFI with Cyno BCMA APP-Avi [1] and 6540 MFI with Cyno BCMA APP-Avi [2].

B9: H2/L2-20 scFv (scFv)
scFv: QAQLQSSGGGVVQPGRSLRLSCAASGFTVSSYGMHWVRQAPGKGLEWVAVISYTGSNKYYADSVKGRFTISRDNSKNTLYLQMNSLRAEDTAVYYCGGSGYALHDDYYGLDVWGQGTLVTVSSSGGGGSGGGGSGGGGSGGGGSQSALTQPASVSGSPGQSITISCTGTSSDVGGYNYVSWYQQHPGKAPKLMIYDVSNRLRGVSNRFSGSKFGNTASLTISGLQAEDEADYYCSSYTSSSALYVFGSGTKVTVL
Take B9: the MFI with Cyno BCMA APP-Avi [1] was 20700 MFI; with Cyno BCMA APP-Avi [2] it was 7030 MFI.

B10: PI-61 (monoclonal phage clone) (other)
VH: QVQLQESGGGVVQPGRSLRLSCAASGFTFSSYGMHWVRQAPGKGLEWVAVISYDGSNKYYADSVKGRFTISRDNSKNTLYLQMNSLRAEDTAVYYCGGSGYALHDDYYGLDVWGQGTLVTVSS
VL: QSALTQPASVSGSPGQSITISCTGTSSDVGGYNYVSWYQQHPGKAPKLMIYDVSNRPSGVSNRFSGSKSGNTASLTISGLQAEDEADYYCSSYTSSSTLYVFGSGTKVTVL
For the molecule B10, the binding result with Human BCMA-His-APP-Avi is “binds”.

B11: PI-61 antibody (as measured by surface plasmon resonance) (antibody, V domains shown)
VH: QVQLQESGGGVVQPGRSLRLSCAASGFTFSSYGMHWVRQAPGKGLEWVAVISYDGSNKYYADSVKGRFTISRDNSKNTLYLQMNSLRAEDTAVYYCGGSGYALHDDYYGLDVWGQGTLVTVSS
VL: QSALTQPASVSGSPGQSITISCTGTSSDVGGYNYVSWYQQHPGKAPKLMIYDVSNRPSGVSNRFSGSKSGNTASLTISGLQAEDEADYYCSSYTSSSTLYVFGSGTKVTVL
notes: also called parental clone
Take B11: the results for the Kd in assay [3] and in assay [4] were roughly 240 nM and roughly 34 nM, respectively.

B12: BCMA-CD3 bispecific antibody AB3 (bispecific antibody)
chain 1: not shown
chain 2: QSALTQPASVSGSPGQSITISCTGTSSDVGGYNYVSWYQQHPGKAPKLMIYDVSNRLRGVSNRFSGSKSGNTASLTISGLQAEDEADYYCSSYTSSSALYVFGSGTKVTVLGQPKAAPSVTLFPPSSEELQANKATLVCLISDFYPGAVTVAWKADSSPVKAGVETTTPSKQSNNKYAASSYLSLTPEQWKSHRSYSCQVTHEGSTVEKTVAPTECS
chain 3: not shown
Turning to B12, the results for the Kd (with recombinant human BCMA; in assay [5]) were 0.0615 nM and 0.105 nM, respectively.
